This note sets out measurements from US20240175877A1.

The experiment concerns the target Ara h 2 (peanut) (UniProt Q6PSU2). The experiment is described as follows: SPR, Biacore 3000.

Ara h 2 (peanut), sequence (Q6PSU2 23-172): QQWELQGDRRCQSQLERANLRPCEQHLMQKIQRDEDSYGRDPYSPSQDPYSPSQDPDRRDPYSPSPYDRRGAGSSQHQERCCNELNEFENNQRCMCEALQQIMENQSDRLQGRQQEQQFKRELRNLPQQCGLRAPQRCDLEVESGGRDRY

B1: 13BU2T1 (antibody, IgG1, V domains shown)
VH: VESGGGVVQPGASLRLSCVASGFTFRDYSMHWVRQAPGKGLEWMSFIRFDGTTKDYRESVKGRFIISRDDSKNTLYLQMTSLRPEDTARYYCVKDNGWRAFDHWGQGALVIVSS
VL: EIVMTQSPLSLPVTPGEAASISCRSSQSLLHRNGYIYLDWYLQRPGQSPQLLISFVSKRASGAPDRFSGSGSGTDFTLTISRVEAEDFGVYFCMQSLENPWTFGP
What is called Kd is the equilibrium constant for the complex coming apart. Read a low Kd as tighter binding. In turn, B1 had a Kd of 4.85 nM.
